Data on two molecules can be found in patent publication US20060246084A1 (MICHIGAN STATE UNIVERSITY, published 2006).

Where two headings read alike, the source gives them in different places.

Test [1] has as its target T1, LcrV68-326, N-terminally truncated LcrV (Yersinia pestis, UniProt P0C7U7 68-326). Briefly: 125I-LcrV68-326 plus unlabelled IFN-γ on human thymocytes.
For test [2], the target named is T1, LcrV68-326, N-terminally truncated LcrV. Briefly: 125I-LcrV68-326 plus unlabelled IFN-γ on human monocytes.
For test [3] the target is unchanged.
The target is the same in test [4]. Briefly: 125I-LcrV68-326 plus unlabelled IFN-γ on U937 cells.
Test [5] has the same target. Briefly: 125I-LcrV68-326 plus unlabelled IFN-γ on human neutrophils.
In test [6] the target is T2, IFN-γ receptor on human cells (no IFN-γ added) (human, UniProt P15260 18-489).
T2 construct: whole, on cells; also called receptors of U937 cells and human neutrophils, monocytes, and thymocytes
T2 sequence: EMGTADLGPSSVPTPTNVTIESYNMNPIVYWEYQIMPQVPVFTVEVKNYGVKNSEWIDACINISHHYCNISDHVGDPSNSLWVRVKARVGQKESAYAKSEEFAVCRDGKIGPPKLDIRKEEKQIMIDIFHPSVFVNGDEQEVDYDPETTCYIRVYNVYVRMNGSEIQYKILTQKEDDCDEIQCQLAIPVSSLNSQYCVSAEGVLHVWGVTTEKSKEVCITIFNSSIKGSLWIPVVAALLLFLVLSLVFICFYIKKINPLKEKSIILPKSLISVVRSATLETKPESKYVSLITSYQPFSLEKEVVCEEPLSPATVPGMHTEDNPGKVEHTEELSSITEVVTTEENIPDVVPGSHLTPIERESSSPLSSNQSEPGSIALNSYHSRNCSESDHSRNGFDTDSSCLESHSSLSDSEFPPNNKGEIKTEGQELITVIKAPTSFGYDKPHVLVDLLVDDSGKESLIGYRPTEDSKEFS
Briefly: 125I radioligand binding to U937 cells.

Test [7] concerns the target T2, IFN-γ receptor on human cells (no IFN-γ …). Briefly: 125I radioligand binding to human monocytes.
For test [8] the target is unchanged. Briefly: 125I radioligand binding to human neutrophils.
Test [9] shares this target. Briefly: 125I radioligand binding to human thymocytes.

B1: IFN-γ bound to its receptor (IFN-γR-IFN-γ) on human cells (other)
chain 1: QDPYVKEAENLKKYFNAGHSDVADNGTLFLGILKNWKEESDRKIMQSQIVSFYFKLFKNFKDDQSIQKSVETIKEDMNVKFFNSNKKKRDDFEKLTNYSVTDLNVQRKAIHELIQVMAELSPAAKTGKRKRSQMLFRGRRASQ
chain 2: EMGTADLGPSSVPTPTNVTIESYNMNPIVYWEYQIMPQVPVFTVEVKNYGVKNSEWIDACINISHHYCNISDHVGDPSNSLWVRVKARVGQKESAYAKSEEFAVCRDGKIGPPKLDIRKEEKQIMIDIFHPSVFVNGDEQEVDYDPETTCYIRVYNVYVRMNGSEIQYKILTQKEDDCDEIQCQLAIPVSSLNSQYCVSAEGVLHVWGVTTEKSKEVCITIFNSSIKGSLWIPVVAALLLFLVLSLVFICFYIKKINPLKEKSIILPKSLISVVRSATLETKPESKYVSLITSYQPFSLEKEVVCEEPLSPATVPGMHTEDNPGKVEHTEELSSITEVVTTEENIPDVVPGSHLTPIERESSSPLSSNQSEPGSIALNSYHSRNCSESDHSRNGFDTDSSCLESHSSLSDSEFPPNNKGEIKTEGQELITVIKAPTSFGYDKPHVLVDLLVDDSGKESLIGYRPTEDSKEFS
Usually Kd stands for the free concentration of one partner at which half of the binding sites on the other are occupied at equilibrium, for simple one-to-one binding. As for B1, the Kd in test [1] amounted to 2.4 nM; in test [2] it was 7.2 nM; in [3], 0.016 nM; in test [4], 0.8 nM; in test [5], 0.92 nM.

B2: recombinant human IFN-γ (ligand)
chain: QDPYVKEAENLKKYFNAGHSDVADNGTLFLGILKNWKEESDRKIMQSQIVSFYFKLFKNFKDDQSIQKSVETIKEDMNVKFFNSNKKKRDDFEKLTNYSVTDLNVQRKAIHELIQVMAELSPAAKTGKRKRSQMLFRGRRASQ
As for B2, the Kd stood at 0.68 nM in [6], 0.84 nM in [7], 0.93 nM in test [8] and 0.26 nM in [9].
